Values of other authors as cited in US6759384B1, “Factor Xa inhibitors” (Aventis Pharmaceuticals Inc., priority 1994, dated 2004).

Biological target: factor Xa
Settings: background section

B1: ATS: antistasin, protein inhibitor of factor Xa isolated from the leech Haementerin officinalis, 119 amino acids (protein, UniProt P15358 18-136, looked up)
Antistasin: QGPFGPGCEEAGCPEGSACNIITDRCTCSGVRCRMHCPHGFQRSRYGCEFCKCRLEPMKATCDISECPEGMMCSRLTNKCDCKIDINCRKTCPNGLKRDKLGCEYCECRPKRKLIPRLS
Ki: 0.05 nM
